B1: Mms 16: 16 kDa protein specific to a magnetic particle membrane of Magnetospirillum sp. AMB-1, amino acid sequence Seq. ID No. 2 (protein, listed as Magnetospirillum sp.)
chain: MAAKQTEQFFDFDVAKYLGDFKVPGVDVETIVANQRKNIEALTQANKLAFEGLQNVVKRQVEILRQTMDEVAQVSKDFAEPGSPQGKAAKQAEFAKDAFERALXNARELAEMIAKANSEAFDLLNKXFTQSLDEAREVFTKAGKK
modifications: X: residue not identified in the source
notes: 16 kDa protein specific to a magnetic particle membrane of Magnetospirillum sp; ID No. 2

Tests used:
[1] = GTPase activity (hydrolysis of 32P-labelled GTP, PEI cellulose TLC, bioimaging analyzer); type: biochemical; conditions: immunoprecipitate on anti-HA antibody sepharose, one hour at 30° C., FIG. 5
[2] = GTP binding ability (UV cross-linking with [γ-35S] GTP, SDS-PAGE, autoradiography); conditions: [γ-35S] GTP 1 μM, one hour at 30° C., protein expressed in E. coli DH5α
Procedure: As Mms 16 of the present invention contained many GTP binding proteins and homologous sequences, the GTP binding ability of Mms 16 was investigated as follows. 1 μl of [γ-^35S] GTP (1 μM; 1,250 Ci/mmol) and cell homogenate were mixed in 20 μl binding buffer (50 mM Tris-HCl, 5 mM MgCl2, 1 mM EDTA, 0.3% Tween 20), and kept still for one hour at 30° C. Then, the obtained reaction mixture was kept still on ice for 20 minutes, and ultraviolet bridging was performed between GTP and protein by using an ultraviolet lamp. Subsequently, ½ amount of 3× sample buffer was added to the reaction solution to denature the protein, and sepharose beads were precipitated by centrifugation, supernatant was loaded onto 15% (w/v) acrylamide gel. After SDS-PAGE, the gel was dried and wrapped in Saran Wrap, and detection was conducted by autoradiography.
As a result, in addition to the protein that binds to [γ-^35S] […] GTP. In case where [α-^32P] GTP is used, [α-^32P] GTP binding type of GTPase is not observed because GDP also dissociates from GTPase when phosphoric acid in position γ dissociates from GTP binding type GTPase by hydrolysis activity. However, in case where [γ-^35S] GTP is used, it is possible to show the presence of GTPase because S is binding to 5′ of phosphoric acid in position γ, and therefore, hydrolysis is not caused by GTPase.

Row | Molecule | GTPase activity [1] | GTP binding ability [2]
1 | Mms 16-HA fusion protein: Mms 16 fused at C-terminal with hemagglutinin epitope tag (YPYDVPDYA), expressed in E. coli from pTrc 16HA | [α-^32P] GTP was hydrolyzed | –
2 | B1 | has GTPase activity | apparently bind to [γ-^35S] GTP

From US20040048289A1, “Magnetic particle membrane-specific protein” (priority 2000, published 2004)
